Source: patent US20240116985A1 (published 2024)
Starred links: 1 amine or outer side, 2 acyl side, 3 side chain; linkers in the order of their positions; H or OH if unused. Positions of bridges follow the written chain, without caps; N, C: chain ends. Non-standard residues stand in square brackets, D forms with d. Primed or numbered codes have the meaning given here. PyrS2″ = (S)-3-amino-1-((pent-4-en-1-yloxy)carbonyl)pyrrolidine-3-carboxylic acid (stapling residue), C=CCCCOC(=O)N1CC[C@@](N[*:1])(C(=O)[*:2])C1; B5(16) = 2-amino-2-(pent-4-en-1-yl)hept-6-enoic acid = 2,2-bis(4-pentenyl)glycine (stitching residue), C=CCCCC(CCCC=C)(N[*:1])C(=O)[*:2]; B5(24) = 2-amino-2-(pent-4-en-1-yl)hept-6-enoic acid, 2,2-bis(4-pentenyl)glycine (stitching residue), C=CCCCC(CCCC=C)(N[*:1])C(=O)[*:2]; B5(3) = 2,2-bis(4-pentenyl)glycine (stitching residue), C=CCCCC(CCCC=C)(N[*:1])C(=O)[*:2]; Phe(2-OMe) = COc1ccccc1C[C@H](N)C(=O)O; Bta = N[C@@H](Cc1csc2ccccc12)C(=O)O; αAllylPro = C=CC[C@@]1(C(=O)O)CCCN1; tBuAla = CC(C)(C)C[C@H](N)C(=O)O; 3Thi = N[C@@H](Cc1ccsc1)C(=O)O; Cha = N[C@@H](CC1CCCCC1)C(=O)O; S8 = C=CCCCCCC[C@](C)(N)C(=O)O

Assays:
[1] = molecular target: T1, full-length beta-Catenin (Uniprot ID P35222) (Homo sapiens (Human), UniProt P35222 1-781); test: fluorescence polarization competition; displacement of 5FAM-TCF4(10-53) from full-length beta-catenin
T1 construct: also called bCat; B-Catenin
T1 sequence: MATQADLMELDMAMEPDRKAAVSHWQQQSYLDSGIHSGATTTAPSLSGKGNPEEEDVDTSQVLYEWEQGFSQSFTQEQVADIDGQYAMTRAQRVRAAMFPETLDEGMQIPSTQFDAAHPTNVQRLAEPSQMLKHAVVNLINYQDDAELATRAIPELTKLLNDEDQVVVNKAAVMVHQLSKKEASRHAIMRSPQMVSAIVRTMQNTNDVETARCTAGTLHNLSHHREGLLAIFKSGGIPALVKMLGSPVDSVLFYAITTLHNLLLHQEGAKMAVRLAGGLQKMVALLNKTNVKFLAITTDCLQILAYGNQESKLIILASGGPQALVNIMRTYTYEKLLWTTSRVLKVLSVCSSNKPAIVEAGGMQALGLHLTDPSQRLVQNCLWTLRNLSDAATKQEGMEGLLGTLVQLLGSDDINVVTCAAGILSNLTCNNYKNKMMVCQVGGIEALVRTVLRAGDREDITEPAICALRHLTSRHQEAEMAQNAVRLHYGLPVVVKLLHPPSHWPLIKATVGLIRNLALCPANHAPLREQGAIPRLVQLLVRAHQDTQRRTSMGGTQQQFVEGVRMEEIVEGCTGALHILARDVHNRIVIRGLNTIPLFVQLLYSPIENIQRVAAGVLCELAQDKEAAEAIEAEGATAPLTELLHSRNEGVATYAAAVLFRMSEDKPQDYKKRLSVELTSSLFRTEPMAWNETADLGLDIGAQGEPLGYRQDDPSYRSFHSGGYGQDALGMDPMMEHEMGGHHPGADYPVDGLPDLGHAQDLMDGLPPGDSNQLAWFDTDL
Method in brief: (§1)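 Plate incubated 60 minutes at 20° C. protected from light before reading. Concentrations given are final.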

B-cat-Halo [2] = molecular target: T2, B-cat-Halo (UniProt P35222 1-781); test: cell-based or functional assay
T2 sequence (looked up): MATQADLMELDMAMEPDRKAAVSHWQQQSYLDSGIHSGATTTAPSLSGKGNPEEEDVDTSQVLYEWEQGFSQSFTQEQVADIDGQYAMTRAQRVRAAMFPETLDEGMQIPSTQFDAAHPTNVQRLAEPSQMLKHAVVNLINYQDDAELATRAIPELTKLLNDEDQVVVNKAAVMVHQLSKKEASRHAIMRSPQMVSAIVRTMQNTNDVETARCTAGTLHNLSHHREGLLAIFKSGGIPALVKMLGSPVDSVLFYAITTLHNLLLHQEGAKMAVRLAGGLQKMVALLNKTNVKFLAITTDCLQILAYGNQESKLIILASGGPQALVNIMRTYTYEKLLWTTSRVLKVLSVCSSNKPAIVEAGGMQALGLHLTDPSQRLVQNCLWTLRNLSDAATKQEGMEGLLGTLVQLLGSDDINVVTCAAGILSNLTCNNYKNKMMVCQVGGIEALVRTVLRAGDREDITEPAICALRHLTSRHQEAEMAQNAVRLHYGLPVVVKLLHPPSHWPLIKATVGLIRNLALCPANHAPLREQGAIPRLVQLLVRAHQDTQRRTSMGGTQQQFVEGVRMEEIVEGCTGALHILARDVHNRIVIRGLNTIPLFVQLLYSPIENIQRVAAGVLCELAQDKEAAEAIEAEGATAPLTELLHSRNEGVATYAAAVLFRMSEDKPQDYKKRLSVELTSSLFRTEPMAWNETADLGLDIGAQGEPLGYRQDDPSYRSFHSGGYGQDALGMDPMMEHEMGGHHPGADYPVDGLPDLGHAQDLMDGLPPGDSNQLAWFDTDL

[3] = molecular target: T3, B-cat-Halo (beta-catenin HaloTag fusion expressed in HEK293 cells) (UniProt P35222 1-781); test: cell-based or functional assay
T3 sequence (looked up): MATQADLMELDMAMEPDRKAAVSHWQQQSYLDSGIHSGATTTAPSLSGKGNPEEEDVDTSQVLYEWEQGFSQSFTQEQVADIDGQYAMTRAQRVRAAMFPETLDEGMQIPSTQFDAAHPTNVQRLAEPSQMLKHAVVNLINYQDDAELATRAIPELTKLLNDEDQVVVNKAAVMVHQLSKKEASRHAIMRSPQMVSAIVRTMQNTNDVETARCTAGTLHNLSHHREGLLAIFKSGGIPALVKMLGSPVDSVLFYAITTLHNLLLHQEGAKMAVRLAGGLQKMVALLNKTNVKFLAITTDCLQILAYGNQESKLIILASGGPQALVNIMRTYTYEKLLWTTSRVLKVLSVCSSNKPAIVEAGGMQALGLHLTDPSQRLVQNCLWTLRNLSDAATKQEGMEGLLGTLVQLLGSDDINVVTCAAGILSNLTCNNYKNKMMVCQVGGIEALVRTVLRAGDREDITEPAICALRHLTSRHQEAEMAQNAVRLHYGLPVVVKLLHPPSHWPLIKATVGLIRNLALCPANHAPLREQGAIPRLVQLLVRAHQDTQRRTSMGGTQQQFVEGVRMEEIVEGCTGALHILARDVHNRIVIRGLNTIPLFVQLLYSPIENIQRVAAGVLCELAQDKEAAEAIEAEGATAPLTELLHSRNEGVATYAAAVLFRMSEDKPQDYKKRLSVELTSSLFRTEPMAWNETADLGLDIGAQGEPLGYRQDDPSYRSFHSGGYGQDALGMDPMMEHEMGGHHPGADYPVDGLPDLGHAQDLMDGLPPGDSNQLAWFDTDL

[4] = molecular target: T4, beta-catenin in DLD1 TCF/LEF luciferase reporter cells (UniProt P35222 1-781); test: cell-based or functional assay
T4 sequence (looked up): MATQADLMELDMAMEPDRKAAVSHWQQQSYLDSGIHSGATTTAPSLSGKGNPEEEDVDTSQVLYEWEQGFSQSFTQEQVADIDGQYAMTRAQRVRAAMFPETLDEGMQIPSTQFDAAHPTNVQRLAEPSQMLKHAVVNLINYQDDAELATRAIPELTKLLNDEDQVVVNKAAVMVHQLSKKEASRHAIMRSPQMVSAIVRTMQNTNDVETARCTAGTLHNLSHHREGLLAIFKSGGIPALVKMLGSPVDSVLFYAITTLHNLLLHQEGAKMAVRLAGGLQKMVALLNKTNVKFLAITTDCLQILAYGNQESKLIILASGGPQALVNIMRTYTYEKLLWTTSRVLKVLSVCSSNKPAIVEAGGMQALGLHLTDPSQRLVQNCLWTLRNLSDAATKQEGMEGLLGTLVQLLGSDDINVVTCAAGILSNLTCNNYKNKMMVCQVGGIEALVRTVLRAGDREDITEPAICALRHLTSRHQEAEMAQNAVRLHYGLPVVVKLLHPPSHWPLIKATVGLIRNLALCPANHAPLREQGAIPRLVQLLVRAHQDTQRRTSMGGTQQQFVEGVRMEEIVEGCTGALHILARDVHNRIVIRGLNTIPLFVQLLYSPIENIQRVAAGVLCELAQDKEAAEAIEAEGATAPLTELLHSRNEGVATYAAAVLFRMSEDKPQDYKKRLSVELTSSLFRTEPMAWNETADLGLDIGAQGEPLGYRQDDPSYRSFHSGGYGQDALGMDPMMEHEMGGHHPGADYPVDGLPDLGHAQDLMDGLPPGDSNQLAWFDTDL

B-cat-Halo [5] = molecular target: T5, B-cat-Halo (UniProt P35222 1-781); test: cell-based or functional assay; remark: listed apart in the source
T5 sequence (looked up): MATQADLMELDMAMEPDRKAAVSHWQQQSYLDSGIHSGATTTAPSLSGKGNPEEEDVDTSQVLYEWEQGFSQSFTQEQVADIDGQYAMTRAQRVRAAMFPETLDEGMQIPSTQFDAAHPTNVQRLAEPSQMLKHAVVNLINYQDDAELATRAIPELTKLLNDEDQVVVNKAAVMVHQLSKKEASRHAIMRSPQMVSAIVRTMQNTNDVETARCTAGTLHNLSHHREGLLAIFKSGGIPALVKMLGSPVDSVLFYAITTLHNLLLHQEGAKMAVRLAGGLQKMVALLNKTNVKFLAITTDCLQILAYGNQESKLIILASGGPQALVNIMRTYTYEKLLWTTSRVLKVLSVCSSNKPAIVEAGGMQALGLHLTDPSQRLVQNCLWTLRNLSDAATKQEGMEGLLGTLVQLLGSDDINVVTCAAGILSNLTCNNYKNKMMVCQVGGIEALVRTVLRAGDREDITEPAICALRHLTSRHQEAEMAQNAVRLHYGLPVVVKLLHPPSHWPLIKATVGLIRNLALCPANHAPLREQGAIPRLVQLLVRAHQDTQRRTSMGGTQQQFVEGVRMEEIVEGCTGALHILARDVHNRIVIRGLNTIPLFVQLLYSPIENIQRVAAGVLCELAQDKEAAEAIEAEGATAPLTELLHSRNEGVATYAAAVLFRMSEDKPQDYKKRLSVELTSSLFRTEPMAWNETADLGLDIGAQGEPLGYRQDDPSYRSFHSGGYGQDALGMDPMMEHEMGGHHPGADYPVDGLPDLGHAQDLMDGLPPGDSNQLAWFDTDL

[6] = molecular target: T6, full-length beta-Catenin (Uniprot ID P35222) (Homo sapiens (Human), UniProt P35222 1-781); test: fluorescence polarization competition; peptide titrated against 10 nM full-length beta-catenin + 10 nM 5FAM-TCF4(10-53) probe
T6 construct: The assay text says 'full-length'; also called bCat; B-Catenin
T6 sequence: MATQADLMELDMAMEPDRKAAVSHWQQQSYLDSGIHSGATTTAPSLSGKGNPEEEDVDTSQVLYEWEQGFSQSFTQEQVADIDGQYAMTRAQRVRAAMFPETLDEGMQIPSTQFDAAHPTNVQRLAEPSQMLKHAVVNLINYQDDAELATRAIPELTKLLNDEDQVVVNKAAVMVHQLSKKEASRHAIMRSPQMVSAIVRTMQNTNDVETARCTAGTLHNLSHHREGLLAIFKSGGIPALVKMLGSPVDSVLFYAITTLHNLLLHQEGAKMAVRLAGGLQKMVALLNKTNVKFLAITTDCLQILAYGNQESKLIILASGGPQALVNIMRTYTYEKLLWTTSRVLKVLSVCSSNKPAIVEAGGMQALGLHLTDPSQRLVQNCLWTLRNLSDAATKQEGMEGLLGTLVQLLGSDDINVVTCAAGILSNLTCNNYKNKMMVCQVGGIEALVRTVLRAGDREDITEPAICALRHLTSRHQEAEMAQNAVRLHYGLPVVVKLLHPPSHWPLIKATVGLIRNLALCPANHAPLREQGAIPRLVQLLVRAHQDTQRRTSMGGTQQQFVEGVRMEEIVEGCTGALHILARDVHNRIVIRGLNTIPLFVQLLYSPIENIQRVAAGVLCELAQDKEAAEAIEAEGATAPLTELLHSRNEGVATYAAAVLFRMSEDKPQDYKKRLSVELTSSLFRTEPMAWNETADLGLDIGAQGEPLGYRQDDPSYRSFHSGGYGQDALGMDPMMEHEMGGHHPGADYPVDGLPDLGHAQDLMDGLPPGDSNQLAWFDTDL
Method in brief: as §1

B1: I-567 (peptide)
peptide: XDVXDDAAFNXFXQ
modifications: not fully specified; Ac-PL3-Asp-Val-B5-Asp-Asp-Ala-Ala-Phe-Asn-S8-Phe-BztA-Gln-NH2; N-terminal acetyl, C-terminal amide; non-natural: PL3(1), B5(4), S8(11), BztA(13); staples PL3(1)-B5(4) and B5(4)-S8(11)
[1]
  EC50: 0.037 µM
B-cat-Halo [2]
  NanoBRET % inh @ 10 uM: 8.9%

## Ac-[αAllylPro]D[Cha][B5(16)]DEAAFN[S8]F[Bta]Q-NH2 (staple 1-4, 4-11; also: later-eluting staple isomer composition) [I-620]
[3]
  NanoBRET IC50: 5.8 µM

## Ac-[αAllylPro]D[tBuAla][B5(3)]DDAAFF[PyrS2″][3Thi][Bta]Q-NH2 (staple 1-4, 4-11) [I-807]
[4]
  DLD1 reporter assay Abs IC50: 3.4 µM

## Ac-[αAllylPro]DA[B5(24)]DEAAFN[S8][Phe(2-OMe)][Bta]Q-NH2 (staple 1-4, 4-11, Stapled peptide composition) [I-437]
B-cat-Halo [5]
  NanoBRET Abs IC50: 17.5 µM
[6]
  IC50: 0.026 µM
